Laboratory results taken from patent US20120277286A1, “COMPOSITIONS AND METHODS FOR THE TREATMENT OR PREVENTION OF MITOCHONDRIAL DISEASES” (The Government of the USA, as represented by the Secretary, …, priority 2009, published 2012).

Columns and labels:
PINK1 = PINK1 cleavage pattern by immunoblotting (Examples 4 and 5); assay type: cell-based; settings: HeLa; for levels of FL and/or ΔMTS-PINK1: absence of CCCP or MG132
Protocol: PARL siRNA (5′-[…]-C′) were synthesized by Qiagen. In order to achieve efficient knockdown of PARL, cells were transfected twice over a period of 96 hrs. PINK1-V5/His was a gift from M. Cookson (National Institute of Health, Bethesda, Md.). For site-directed mutagenesis, primers were designed using Primer X, web-based mutagenic primer design program (http://www.bioinformatics.org/primerx/), and produced by Operon. 15 rounds of PCR reactions were performed using Phusion DNA polymerase (Finnzymes) and WT PINK1-YFP constructs as a template. Introduction of point mutations were confirmed by sequencing.
(§1) Cells were cultured in borosilicated chamber slides for imaging, 6-well plates for whole cell lysates, and 100 or 150 mm culture dish for subcellular fractionation. One day after seeding, cells were transfected with indicated constructs using Fugene HD (Roche) or Lipofectamine 2000 (Invitrogen) according to the manufacturer's guidelines.
For whole cell lysates, cells were washed twice with cold-PBS and then directly lysed with 1× sample buffer. For mitochondrial fraction, cells were fractionated as described previously (Narendra et al., 2008) and below, and then mitochondrial pellets were lysed with 1× sample buffer. 20 μg of proteins were separated on 4-12% Tris-glycine or Bis-Tris SDS-PAGE. The following antibodies were used: anti-PINK1 (Novus Biologicals), anti-PARL N-terminal (a gift from L. Pellegrini), anti-Tom20 (Santa Cruz Biotechnology, Inc.), anti-AIF (Sigma-Aldrich) and antiHtra2/Omi (R&D systems) polyclonal antibodies; anti-VDAC (Calbiochem), anti-Tubulin, anti-βactin (Sigma-Aldrich), anti-Hsp70 (Cell Signaling Technologies), anti-Tom20 (BD), anti-Tim23 and anti-cytochrome C (BD) monoclonal antibodies.

HeLa cells = assay: Mitochondrial translocation of Parkin by imaging (Examples 4 and 5); assay type: cell-based; settings: HeLa cells or PINK1 KO cells, without CCCP
Protocol: as §1
For immunocytochemistry, cultured cells in borosilicated chamber slides were fixed with 4% paraformaldehyde in PBS (USB) and permeabilized with the indicated detergent. After 30 min blocking with 10% BSA in PBS, cells were stained with the following primary antibodies: antiTom20 polyclonal antibody (Santa Cruz Biotechnology, Inc.) and anti-cytochrome C monoclonal antibody (BD), or anti-Tom20 monoclonal antibody (BD) and anti-GFP polyclonal antibody (Invitrogen) and then with the following secondary antibodies: goat anti-mouse/rabbit IgG antibody conjugated with Alexa Fluor 594/647, respectively. In case of live cell imaging, cells were pulsed with 600 nM TMRE for 5 min to evaluate mitochondrial membrane potential or 10 nM Mitotracker Red for 30 min to see the mitochondrial morphology. Cells were imaged using an inverted microscope (LSM510 Meta; Carl Zeiss) with 63×/1.4 oil DIC Plan Apo objective. Image contrast and brightness were adjusted in LSM image browser (Carl Zeiss).

Molecule	levels of FL and/or ΔMTS-PINK1 (PINK1)	52 kDa fragment of PINK1 (PINK1; absence of MG132 treatment)	mitochondrial translocation of Parkin induced by PINK1 mutant (HeLa cells)
G97F: PINK1-YFP transmembrane domain point mutant (protein, UniProt Q9BXM7 78-581, looked up, variant G97F, YFP fusion, PINK1-YFP transmembrane domain point mutant) Serine/threonine-protein …: AARLQRQFVVRAWGCAGPCFRAVFLAFGLGLGLIEEKQAESRRAVSACQEIQAIFTQKSKPGPDPLDTRRLQGFRLEEYLIGQSIGKGCSAAVYEATMPTLPQNLEVTKSTGLLPGRGPGTSAPGEGQERAPGAPAFPLAIKMMWNISAGSSSEAILNTMSQELVPASRVALAGEYGAVTYRKSKRGPKQLAPHPNIIRVLRAFTSSVPLLPGALVDYPDVLPSRLHPEGLGHGRTLFLVMKNYPCTLRQYLCVNTPSPRLAAMMLLQLLEGVDHLVQQGIAHRDLKSDNILVELDPDGCPWLVIADFGCCLADESIGLQLPFSSWYVDRGGNGCLMAPEVSTARPGPRAVIDYSKADAWAVGAIAYEIFGLVNPFYGQGKAHLESRSYQEAQLPALPESVPPDVRQLVRALLQREASKRPSARVAANVLHLSLWGEHILALKNLKLDKMVGWLLQQSAATLLANRLTEKCCVETKMKMLFLANLECETLCQAALLLCSWRAAL	dramatically increased levels		
A103W: PINK1-YFP transmembrane domain point mutant (protein, UniProt Q9BXM7 78-581, looked up, variant A103W, C-terminal YFP fusion, PINK1-YFP transmembrane domain point mutant) Serine/threonine-protein …: AARLQRQFVVRAWGCAGPCGRAVFLWFGLGLGLIEEKQAESRRAVSACQEIQAIFTQKSKPGPDPLDTRRLQGFRLEEYLIGQSIGKGCSAAVYEATMPTLPQNLEVTKSTGLLPGRGPGTSAPGEGQERAPGAPAFPLAIKMMWNISAGSSSEAILNTMSQELVPASRVALAGEYGAVTYRKSKRGPKQLAPHPNIIRVLRAFTSSVPLLPGALVDYPDVLPSRLHPEGLGHGRTLFLVMKNYPCTLRQYLCVNTPSPRLAAMMLLQLLEGVDHLVQQGIAHRDLKSDNILVELDPDGCPWLVIADFGCCLADESIGLQLPFSSWYVDRGGNGCLMAPEVSTARPGPRAVIDYSKADAWAVGAIAYEIFGLVNPFYGQGKAHLESRSYQEAQLPALPESVPPDVRQLVRALLQREASKRPSARVAANVLHLSLWGEHILALKNLKLDKMVGWLLQQSAATLLANRLTEKCCVETKMKMLFLANLECETLCQAALLLCSWRAAL		stabilize the 52 kDa fragment	did not recruit Parkin
R98F: PINK1-YFP transmembrane domain point mutant (protein, UniProt Q9BXM7 78-581, looked up, variant R98F, YFP fusion, PINK1-YFP transmembrane domain point mutant) Serine/threonine-protein …: AARLQRQFVVRAWGCAGPCGFAVFLAFGLGLGLIEEKQAESRRAVSACQEIQAIFTQKSKPGPDPLDTRRLQGFRLEEYLIGQSIGKGCSAAVYEATMPTLPQNLEVTKSTGLLPGRGPGTSAPGEGQERAPGAPAFPLAIKMMWNISAGSSSEAILNTMSQELVPASRVALAGEYGAVTYRKSKRGPKQLAPHPNIIRVLRAFTSSVPLLPGALVDYPDVLPSRLHPEGLGHGRTLFLVMKNYPCTLRQYLCVNTPSPRLAAMMLLQLLEGVDHLVQQGIAHRDLKSDNILVELDPDGCPWLVIADFGCCLADESIGLQLPFSSWYVDRGGNGCLMAPEVSTARPGPRAVIDYSKADAWAVGAIAYEIFGLVNPFYGQGKAHLESRSYQEAQLPALPESVPPDVRQLVRALLQREASKRPSARVAANVLHLSLWGEHILALKNLKLDKMVGWLLQQSAATLLANRLTEKCCVETKMKMLFLANLECETLCQAALLLCSWRAAL	dramatically increased levels		did not induce
